# Test results: paper PMC3923439, “Anti-inflammatory properties of a novel peptide interleukin 1 receptor antagonist” (Journal of Neuroinflammation, 2014)
# No end group written: not given here.
# T1: ectodomain of IL-1RI (Homo sapiens, UniProt P14778)
# T1 construct: the recombinant ectodomain of IL-1RI (R&D Systems) was injected; purchased R&D Systems
# T1 sequence (P14778 18-336 limits assumed): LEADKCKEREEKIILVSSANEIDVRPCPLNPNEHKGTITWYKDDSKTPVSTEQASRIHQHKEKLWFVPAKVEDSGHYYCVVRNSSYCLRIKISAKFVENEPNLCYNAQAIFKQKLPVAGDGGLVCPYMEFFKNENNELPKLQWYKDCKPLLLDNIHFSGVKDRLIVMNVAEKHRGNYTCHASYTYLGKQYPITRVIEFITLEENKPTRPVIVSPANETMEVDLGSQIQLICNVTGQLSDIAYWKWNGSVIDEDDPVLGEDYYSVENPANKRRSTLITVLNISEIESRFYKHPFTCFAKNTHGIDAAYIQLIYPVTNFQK
# T2: recombinant ectodomain of IL-1 receptor type I (IL-1RI) (UniProt P14778 18-336)
# T2 construct: interleukin 1 receptor type I, ectodomain; No catalogue number, limits or tag are printed for the bought protein; also called sIL-1RI; soluble IL-1 receptor type I; source: bought: R&D Systems
# T2 sequence (looked up): T1 sequence (P14778 18-336 limits assumed)
# B1: Ilantide-t (peptide)
# peptide: SGRKSSKMQA
# modifications: also: dendrimer of four monomers coupled to a lysine backbone
# notes: ten residues from the N terminus of human IL-1 receptor antagonist (IL-1Ra); Four copies of the peptide on a lysine backbone; also called IL-1 antagonistic peptide (dendrimer form); source: synthetic peptide; bought: Schafer-N; further purified by gel filtration (Sephadex G-10)
# B2: sIL-1RI: soluble IL-1 receptor type I (recombinant ectodomain of IL-1RI) (protein)
# chain: T1 sequence (P14778 18-336 limits assumed)
# Assays:
# AMJ2-C8 macrophages = assay: TNF-α secretion from IL-1β-activated macrophages (L929 bioassay); assay type: cell-based, mouse; conditions: 1.2 pM IL-1β, 24 hours; TNF-α by L929 survival with actinomycin D; hydrocortisone at 100 μM
# Description: A murine alveolar macrophage cell line, AMJ2-C8 (American Type Culture Collection, Borås, Sweden), was routinely grown at 37°C with 5% CO2 in DMEM supplemented with 5% (vol/vol) FCS, 0.5% (v/v) 2-[4-(2-hydroxyethyl)piperazin-1-yl]ethanesulfonic acid (HEPES) (Gibco BRL), 2 mM GlutaMAX, 100 U/ml penicillin and 100 μg/ml streptomycin.
# AMJ2-C8 macrophages were seeded into six-well multidishes at a density of 2.5 × 10^5 cells/well, and sIL-1RI, IL-1Ra or various concentrations of Ilantide were added to the cultures. Treatment with 100 μM hydrocortisone (Sigma-Aldrich, Brøndby, Denmark) was used as a positive control. After 10-minute incubation at 37°C, 1.2 pM IL-1β or IFN-γ (R&D Systems) was added to activate the macrophages. L929 cells were seeded onto a 96-well plate (Nunc, Roskilde, Denmark) at a density 0.2 × 10^2 cells/ml. Both cell cultures were incubated for 24 hours at 37°C. Conditioned medium from macrophages was collected and added to the L929 cell cultures together with actinomycin D (0.6 μg/well; Sigma-Aldrich). TNF-α is known to induce classic apoptosis in L929 cells in the presence of actinomycin D [12]. After 24-hour incubation at 37°C, 20 μl of 3-(4,5-dimethylthiazol-2-yl)-5-(3-carboxymethoxyphenyl)-2-(4-sulfophenyl)-2H-tetrazolium (Promega, Madison, WI, USA) were added to each well and incubated at 37°C in the dark for 45 minutes, then measured in an ELISA reader at 490 nm. To calculate the amount of TNF-α in the conditioned medium, fibroblasts were treated with standard concentrations of TNF-α (R&D Systems).
# [1] = system: Cerebellar granule neurons; assay: Survival of cerebellar granule neurons induced to undergo apoptosis by low potassium; assay type: cell-based, rat; conditions: 5 mM KCl, survival estimated 48 hours later
# Description: (§1) Cerebellar granule neurons (CGNs) were prepared from 7-day-old Wistar rats (from Charles River Laboratories, Sulzfeld, Germany; or from Hygind Møllegård Erik Møllegaard Hansen, Ejby, Denmark) as previously described. Briefly, the cerebella were cleared of meninges and blood vessels, roughly homogenized by chopping and trypsinized. The cells were washed in the presence of DNAse I and soybean trypsin inhibitor (Sigma-Aldrich, St Louis, MO, USA), and cellular debris was pelleted by centrifugation. The fibroblastoid mouse cell line L929 (LVN; European Collection of Cell Cultures, Porton Down, UK) was routinely grown at 37°C with 5% CO2 in DMEM supplemented with 10% (vol/vol) FCS, 2 mM GlutaMAX, 100 U/ml penicillin and 100 μg/ml streptomycin.
# (§2) Cerebellar granule neurons were plated at a density of 1 × 10^5 cells/cm^2 on poly-L-lysine-coated, eight-well Permanox Lab-Tek chamber slides (Nunc) in Neurobasal-A medium supplemented with 2% (vol/vol) B27 (Gibco BRL), 0.5% (vol/vol) GlutaMAX, 100 U/ml penicillin and 100 μg/ml streptomycin. The CGN survival assay was performed as previously described. The neurite outgrowth assay was also performed as previously described.
# Figure 5 Effect of Ilantide and interleukin 1 receptor antagonist on survival of cerebellar granule neurons induced to undergo apoptosis. The neurons were allowed to differentiate for 7 days in a high-potassium (40 mM) medium before apoptosis was induced by changing to a low-potassium medium (5 mM). Survival was estimated 48 hours later. (A) The effect of insulin-like growth factor 1 (IGF-1), interleukin 1 receptor antagonist (IL-1Ra) and IL-1β on cerebellar granule neuron (CGN) apoptosis induced by 5 mM KCl. (B) The effect of Ilantide-m on CGN apoptosis induced by 5 mM KCl. […] The results from at least four independent experiments are expressed as mean ± SEM with untreated cultures induced to undergo apoptosis by 5 mM KCl set at 100%. *P < 0.05 and **P < 0.01 compared with untreated cultures induced to undergo apoptosis (one-way analysis of variance followed by Newman-Keuls post hoc test).
# ectodomain of IL-1RI = target: T1, ectodomain of IL-1RI; assay: Surface plasmon resonance binding of immobilized ligand to recombinant IL-1RI ectodomain; conditions: SPR, Biacore 2000, ligand immobilized on CM4 chip, IL-1RI ectodomain injected, 25°C
# Description: (§3) The binding analysis was performed using a Biacore 2000 instrument (GE Healthcare Life Sciences) that contained 150 mM NaCl as running buffer at 25°C with 10 mM sodium phosphate (pH 7.4). The flow rate was 5 μl/min during immobilization. Ilantide peptide, IL-1β or IL-1Ra was immobilized on a CM4 sensor chip according to the manufacturer’s instructions, after which the recombinant ectodomain of IL-1RI (R&D Systems) was injected. The neural cell adhesion molecule (NCAM) immunoglobulin modules 1 and 2 (Ig1 and Ig2) were used as a negative control protein [9]. The data were analyzed using nonlinear curve-fitting with the manufacturer’s software.
# [2] = system: double-Ig module (Ig1-Ig2) of NCAM; assay: Surface plasmon resonance, negative control protein; assay type: binding; conditions: SPR
# Description: as §3
# [3] = system: Cerebellar granule neurons; assay: Neurite outgrowth from cerebellar granule neurons; assay type: cell-based, rat; conditions: for Neurite outgrowth from CGNs: 7-day-old CGNs grown on fibroblast cells, 24 hours
# Description: as §1, §2
# Figure 6 Effect of Ilantide on neurite outgrowth from cerebellar granule neurons. Cerebellar granule neuron cultures were treated with interleukin 1 receptor antagonist (IL-1Ra) (A), soluble interleukin 1 receptor type I (sIL-1RI) (B), Ilantide-t (C) or IL-1β (D) for 24 hours. The cultures were fixed and immunostained with rabbit anti-rat growth-associated protein 43 (anti-GAP-43) primary antibodies and then with secondary Alexa Fluor 488 goat anti-rabbit antibodies. (E) Effect of IL-1β on neurite outgrowth induced by IL-1Ra. (F) Effect of IL-1β on neurite outgrowth induced by Ilantide-t. The results from three to four independent experiments are expressed as percentage ± SEM with untreated controls set at 100%, corresponding to an average neurite length of 19.3 ± 4.1 μm. *P < 0.05 and **P < 0.01 compared with untreated controls (A to D) or cultures treated with either IL-1Ra or Ilantide alone (E and F) by one-way analysis of variance followed by the Newman-Keuls post hoc test).
# [4] = target: T2, recombinant ectodomain of IL-1 receptor …; assay: SPR; Biacore 2000; about 2,500 to 3,000 RU of Ilantide-t, IL-1β or IL-1Ra immobilised on a CM4 sensor chip; IL-1RI ectodomain (or NCAM Ig1-Ig2 as negative control) injected; 25°C, 10 mM sodium phosphate pH 7.4, 150 mM NaCl; apparent Kd; conditions: both partners purified
# [5] = system: HEK-Blue IL-1β cells (IL-1RI / NF-κB); assay: IL-1β-induced NF-κB activation, SEAP reporter; assay type: cell-based; conditions: 1.2 pM IL-1β, 24 hours, SEAP read at 600 nm, four independent experiments
# Description: HEK-Blue IL-1β cells that contained an IL-1β-sensitive reporter (InvivoGen, San Diego, CA, USA) and HEK-Blue IL-6 cells that contained an IL-6-sensitive reporter (InvivoGen) were grown at 37°C with 5% CO2 in Dulbecco’s modified Eagle’s medium (DMEM) supplemented with 5% (vol/vol) fetal calf serum (FCS), 4.5 g/L glucose, 2 mM GlutaMAX medium, 100 U/ml penicillin, 100 μg/ml streptomycin (all obtained from Gibco BRL/Life Technologies, Taastrup, Denmark), 100 μg/ml zeocin, 200 μg/ml hygromycin and 100 μg/ml Normocin (all purchased from InvivoGen).
# HEK-Blue IL-1β cells allow the monitoring of the activation of the NF-κB pathway specifically in response to IL-1β. They express a NF-κB-inducible secreted embryonic alkaline phosphatase (SEAP) reporter gene. The binding of IL-1β to its receptor IL-1RI on the surface of HEK-Blue IL-1β cells triggers a signaling cascade that leads to the activation NF-κB and the subsequent production of SEAP. HEK-Blue IL-1β cells were grown as described above. The cells were seeded onto a 96-well plate at a density 3.5 × 10^5 cells/ml. For the NF-κB activation assay, the cells were treated with 1.2 pM IL-1β alone or together with sIL-1RI, IL-1Ra or various concentrations of Ilantide. After 24 hours of incubation at 37°C, 150 μl of the cell supernatants were added to each well of a 96-well plate together with 50 μl of QUANTI-Blue (InvivoGen), incubated at 37°C for 40 minutes and measured in an enzyme-linked immunosorbent assay (ELISA) reader at 600 nm to determine the expression levels of reporter genes activated by NF-κB.
molecule,measurement,setting,value
"C[C@]12CCC(=O)C=C1CC[C@@H]1[C@@H]2[C@@H](O)C[C@@]2(C)[C@H]1CC[C@]2(O)C(=O)CO [hydrocortisone, reference compound]",Inhibition of IL-1β-induced TNF-α secretion in macrophages,AMJ2-C8 macrophages,completely inhibited
"IGF-1: insulin-like growth factor 1, positive control [reference compound]",CGN survival after potassium withdrawal,[1],inhibited
IL-1β: recombinant interleukin 1β,k a,"ectodomain of IL-1RI; 10 mM sodium phosphate pH 7.4, 150 mM NaCl",8.56 ± 2.79 × 10^5 M^-1 s^-1
same,k d,ectodomain of IL-1RI; pH 7.4,7.53 ± 2.03 × 10^-4 s^-1
same,Binding to double-Ig module of NCAM (negative control),[2],no significant binding
same,Neurite outgrowth from CGNs,[3],did not have neuritogenic effects
same,Effect on the neuritogenic effect of both IL-1Ra and Ilantide-t,[3]; IL-1β at 1.5 nM and 7.5 nM,significantly inhibited
B1,Kd,[4],27.5 nM
same,koff,[4],0.00269 s⁻¹
same,kon,[4],184000 M⁻¹ s⁻¹
B2,Inhibition of NF-κB activation induced by IL-1β,[5],dose-dependently inhibited
same,Inhibition of IL-1β-induced TNF-α secretion in macrophages,AMJ2-C8 macrophages,significantly inhibited
same,Neurite outgrowth from CGNs,[3],significantly induced neurite outgrowth
